The text below walks through data of patent publication US20170101466A1 (published 2017).

The labels stand for the following.
B6: mouse APRIL (ligand, UniProt Q9D777 96-241, looked up)
chain: AVLTQKHKKKHSVLHLVPVNITSKADSDVTEVMWQPVLRRGRGLEAQGDIVRVWDTGIYLLYSQVLFHDVTFTMGQVVSREGQGRRETLFRCIRSMPSDPDRAYNSCYSAGVFHLHQGDIITVKIPRANAKLSLSPHGTFLGFVKL
notes: Bought recombinant protein; also called mAPRIL

One experiment has as its target T1, soluble cynomolgus BLyS (cynomolgus, UniProt A0A2K5V2X4 134-285).
T1 construct: Soluble form; also called cyBLyS; Soluble cyBLyS
As to the kind of experiment: ELISA, soluble cyBLyS. In general terms: An ELISA detects its analyte on a solid surface through an enzyme-linked reagent.

Experiment [1] concerns the target T2, soluble human BLyS (human, UniProt Q9Y275 134-285).
T2 construct: also called hBLyS; human BAFF (BLyS)
Kind of experiment: ELISA, soluble hBLyS; soluble hBLyS ELISA.

The target in experiment [2] is B6. As to the kind of experiment: Biacore, binder captured, APRIL injected at 50 nM. How it is done:
(§1) Recombinant protein NG (Thermo Scientific, Cat #21186) was diluted to 100 μg/ml in 10 mM Sodium Acetate pH 4.0 and then immobilized on the surface of a pre-activated Series S CM4 Biacore chip (GE, Cat #BR-1005-34) using amine coupling. […] Binding response was measured as the difference in total RU increase during 300 second APRIL injection of each individual flow cell and the reference flow cell (e.g., Flow cell 2-1).

The target of experiment [3] is T3, human APRIL (human, UniProt O75888 105-250, limits assumed).
T3 construct: Bought recombinant protein; also called hAPRIL
T3 sequence (looked up): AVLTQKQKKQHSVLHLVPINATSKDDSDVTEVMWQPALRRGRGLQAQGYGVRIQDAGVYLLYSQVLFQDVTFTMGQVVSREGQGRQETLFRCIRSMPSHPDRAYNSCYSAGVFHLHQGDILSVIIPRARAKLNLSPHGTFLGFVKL
Kind of experiment: Biacore, binder captured, APRIL injected at 50 nM. How it is done:
as §1

Experiment [4] addresses T4, soluble mouse BLyS (mouse, UniProt Q9WU72 127-309).
T4 construct: europium-labelled in DELFIA; also called mBLyS; mouse BAFF (BLyS)
As to the kind of experiment: Biacore T100, binder captured by anti-human Fc, BLyS injected, 1:1 model. The protocol:
(§2) A Series S CM5 Chip (GE Healthcare) was amine coupled with an anti-human Fc capturing antibody (GE Healthcare Human Fc Kit) to >10,000 RUs. Sample antibodies were diluted in 1×HBS-EP+ running buffer to 0.15 ug/mL and injected for 45 seconds at 10 uL/min. […] Biacore Evaluation software was used to fit the data to a 1:1 Binding Model.
A general note: SPR reads the build-up and loss of mass on a sensor chip optically.

In experiment [5] the target is T2, soluble human BLyS. The description is as above. The protocol: as §2
Experiment [6] deals with T2, soluble human BLyS. Kind of experiment: DELFIA competition, Eu-hBLyS binding to coated BR3. How it is done: (§3) After 5× washing with 200 ul/well of DELFIA 1× wash solution (PE, Cat #4010-0010), plates were blocked with 3% BSA purified from trace heavy metal amounts (PE, Cat #CR84-100) for 3 hours with shaking at room temperature. Plates were washed again five times at 200 μl/well with DELFIA wash solution.
(§4) The final 3 wells across the plate served as controls (2 wells contained 2,000 pM mAbs for negative and background controls while the third contained no mAbs for positive control). […] After 18-24 hrs at 4° C., plates were read on PE EnVision plate reader with laser excitation, LANCE/DELFIA top mirror, and emission filter Eu-615 with a delay of 400 μs. Data were fit to four parameter (variable slope) inhibition dose response curve using GraphPad PRISM 5.0 software.

Experiment [7] addresses T2, soluble human BLyS. Kind of experiment: cell-based or functional assay.
Experiment [8] has as its target T4, soluble mouse BLyS. As to the kind of experiment: DELFIA competition, Eu-mBLyS binding to coated BR3. The protocol:
as §3, §4

In experiment [9] the target is T4, soluble mouse BLyS. As to the kind of experiment: ELISA, soluble mBLyS.
Experiment [10] has as its target B6. As to the kind of experiment: Biacore, antibody captured, APRIL injected. The protocol: as §1
For experiment [11], the target named is T3, human APRIL. As to the kind of experiment: Biacore, antibody captured, APRIL injected. The protocol:
as §1

Experiment [12] has as its target T4, soluble mouse BLyS. As to the kind of experiment: DELFIA competition, Eu-mBLyS binding to coated TACI. The protocol:
as §3, §4

The target of experiment [13] is T4, soluble mouse BLyS. Kind of experiment: Biacore, antibody captured on chip, BLyS injected, 1:1 model, 25 C. The protocol: (§5) Recombinant protein NG (Thermo Scientific, Cat #21186) was diluted to 100 μg/ml in 10 mM sodium acetate pH 4.0 and then immobilized on the surface of a pre-activated Series S CM5 Biacore chip (GE, Cat #BR-1005-34) using amine coupling. […] After the dissociation period, the chip was regenerated back to baseline by injecting 10 mM glycine pH 1.5 for 120 seconds over the four flow cells. […] The entire data set was fit to a 1:1 interaction model to give kₒₙ, koff, and Kd values. The assay was run at 25° C. in 1× biacore running buffer HBS-EP+ (GE, Cat #BR-1006-69).

For experiment [14], the target named is T2, soluble human BLyS. The experiment is described as above. The protocol:
as §5

Experiment [15] deals with T4, soluble mouse BLyS. As to the kind of experiment: Biacore.
The target of experiment [16] is T2, soluble human BLyS. As to the kind of experiment: Biacore.
Experiment [17] deals with T4, soluble mouse BLyS. As to the kind of experiment: DELFIA competition, Eu-mBLyS binding to coated BCMA. The protocol:
as §3, §4

Experiment [18] addresses T2, soluble human BLyS. Kind of experiment: ELISA, soluble hBLyS.
Experiment [19] addresses T2, soluble human BLyS. Kind of experiment: blocking of biotinylated soluble hBLyS binding to immobilized mBR3.
Experiment [20] addresses T2, soluble human BLyS. As to the kind of experiment: DELFIA competition, Eu-hBLyS binding to coated BCMA. How it is done: as §3, §4
Experiment [21] has as its target T2, soluble human BLyS. Kind of experiment: DELFIA competition, Eu-hBLyS binding to coated TACI. The protocol: as §3, §4
Experiment [22] has as its target T4, soluble mouse BLyS. Kind of experiment: cell-based or functional assay.
Experiment [23] has as its target T5, human TACI (R&D Systems receptor chimera) (human, UniProt O14836 2-166).
T5 construct: also called hTACI; TACI rec Human
T5 sequence (looked up): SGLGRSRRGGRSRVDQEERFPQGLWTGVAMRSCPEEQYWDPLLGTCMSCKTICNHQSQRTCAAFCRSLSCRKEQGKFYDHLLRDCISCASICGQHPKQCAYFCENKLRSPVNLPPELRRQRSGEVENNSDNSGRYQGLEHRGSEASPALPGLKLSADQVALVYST
Kind of experiment: Biacore, binder captured, APRIL injected at 50 nM. How it is done: as §1

B1: 1F4 IgG expressed in HEK293 cells (antibody, V domains shown)
VH: QVTLKESGPTLVKPTQTLTLTCTFSGFSLSTSRVGVGWIRQPPGKALEWLARIDWDDDKYYSTSLKTRLTISKDTSKNQVVLTMTNMDPVDTATYYCARTHTYYDILTGYSYHVYFDYWGQGTLVTVSS
VL: QSALTQPPSASGSRGQSVSISCSGSRSDIGYYNYVSWYQQHPGKAPKLIIFDVNKRPSGVPDRFSGSKSGNTASLTVSGLQPEDEADYYCASYGGRNNLLFGGGTQLTVLG
notes: IgG from HEK293-FreeStyle cells; also called IF4
In general, IC50 refers to the concentration that inhibits the measured activity by half. As for B1, the IC50 in the experiment with soluble cynomolgus BLyS was 0.11 nM; with soluble human BLyS [1], 2.87 nM.

B2: mouse TACI (R&D Systems receptor chimera) (receptor, UniProt Q9ET35 2-129, looked up, not shown: a dimerising Fc or GST)
chain: AMAFCPKDQYWDSSRKSCVSCALTCSQRSQRTCTDFCKFINCRKEQGRYYDHLLGACVSCDSTCTQHPQQCAHFCEKRPRSQANLQPELGRPQAGEVEVRSDNSGRHQGSEHGPGLRLSSDQLTLYCT
notes: also called mTACI; TACI rec Mouse
By Kd is commonly meant a measure of binding affinity in units of concentration. A higher Kd goes with weaker binding. The term koff denotes the rate constant with which the complex falls apart. A lower koff goes with a long-lived complex. Broadly, the kon is the rate constant with which the complex forms. Turning to B2, in the experiment with mouse APRIL [2], the binding result was “binds”. Moreover, the binding result with human APRIL [3] is reported as “binds”. In the experiment with soluble mouse BLyS [4], this molecule registered a Kd of 0.177 nM, a koff of 0.000121 s⁻¹ and a kon of 682000 M⁻¹ s⁻¹. In the experiment with soluble human BLyS [5], this molecule came in with a Kd of 0.602 nM, a koff of 0.000239 s⁻¹ and a kon of 397000 M⁻¹ s⁻¹.

B3: tabalumab (antibody, V domains shown)
VH: QVQLQQWGAGLLKPSETLSLTCAVYGGSFSGYYWSWIRQPPGKGLEWIGEINHSGSTNYNPSLKSRVTISVDTSKNQFSLKLSSVTAADTAVYYCARGYYDILTGYYYYFDYWGQGTLVTVSS
VL: EIVLTQSPATLSLSPGERATLSCRASQSVSRYLAWYQQKPGQAPRLLIYDASNRATGIPARFSGSGSGTDSTLTISSLEPEDFAVYYCQQRSNWPRTFGQGTKVEIKR
B3: the IC50 with soluble human BLyS [6] was 0.0899 nM; with soluble mouse BLyS [8], more than 2 nM. Besides, the “IC50 hBLyS stimulated, mouse splenic B-cell proliferation” value (from here on “IC50 hBLyS stimulated”) with soluble human BLyS [7] was 4 ng/mL.

B4: 5B7 IgG expressed in HEK293 cells (antibody, V domains shown)
VH: QVQLVQSGAEVKKPGASVKVSCKASGGTFSSYAISWVRQAPGQGLEWMGGIIPIFGTANYAQKFQGRVTITADKSTSTAYMELSSLRSEDTAVYYCARVDYDILTGYYMGYFDYWGQGTLVTVSS
VL: DIVMTQSPATLSLSPGERATLSCRASQSVSSYLAWYQQKPGQAPRLLIYDASNRATGIPARFSGSGSGTDFTLTISSLEPEDFAVYYCQQRSNWPITFGQGTRLEIKR
notes: also called 5B7 (293); 5B7-HEK293
B4: the IC50 in the experiment with soluble mouse BLyS [9] was 0.16 nM; in the experiment with soluble mouse BLyS [12] it was less than 0.0003 nM; with soluble human BLyS [6] it was 0.0526 nM; with soluble cynomolgus BLyS it was 0.08 nM; with soluble mouse BLyS [17] it was 0.0013 nM; with soluble human BLyS [18], 0.1 nM. In addition, the IC50 is 0.43 nM with soluble human BLyS [19], 0.0018 nM with soluble human BLyS [20], less than 0.0003 nM with soluble human BLyS [21] and 0.107 nM with soluble mouse BLyS [8]. Also, the binding result with mouse APRIL [10] and in the experiment with human APRIL [11] was “no binding (tested: 50 nM)” throughout. The Kd in the experiment with soluble mouse BLyS [13] is 0.062 nM; in the experiment with soluble human BLyS [14], 0.224 nM; in the experiment with soluble mouse BLyS [15], 0.0145 nM; with soluble human BLyS [16], 0.4 nM. Moreover, the koff in the experiment with soluble mouse BLyS [13] and with soluble human BLyS [14] was 4.2e-05 s⁻¹ throughout. The figures for the kon with soluble mouse BLyS [13] and in the experiment with soluble human BLyS [14] were 670000 M⁻¹ s⁻¹ and 190000 M⁻¹ s⁻¹, respectively. For the same molecule, the “IC50 mBLyS stimulated, mouse splenic B-cell proliferation” value in the experiment with soluble mouse BLyS [22] stood at 3 ng/mL. In addition, the “IC50 hBLyS stimulated” value in the experiment with soluble human BLyS [7] came out at 4 ng/mL.

B5: 5B7 IgG1 F243A/V264A double mutein expressed in Pichia pastoris (antibody, V domains shown)
VH: QVQLVQSGAEVKKPGASVKVSCKASGGTFSSYAISWVRQAPGQGLEWMGGIIPIFGTANYAQKFQGRVTITADKSTSTAYMELSSLRSEDTAVYYCARVDYDILTGYYMGYFDYWGQGTLVTVSS
VL: DIVMTQSPATLSLSPGERATLSCRASQSVSSYLAWYQQKPGQAPRLLIYDASNRATGIPARFSGSGSGTDFTLTISSLEPEDFAVYYCQQRSNWPITFGQGTRLEIKR
notes: IgG1 F243A/V264A (EU) double mutein, alpha-2,6-sialylated, from glycoengineered Pichia pastoris; also called 5B7-DM; 5B7-DM Pichia
B5: the binding result with mouse APRIL [10] and with human APRIL [11] was “no binding (tested: 50 nM)” each time. In addition, the IC50 with soluble mouse BLyS [12] is less than 0.0003 nM; with soluble human BLyS [6] it was 0.0377 nM; with soluble mouse BLyS [17], less than 0.0003 nM; with soluble human BLyS [20] it was 0.0016 nM; with soluble human BLyS [21] it was 0.00051 nM; in the experiment with soluble mouse BLyS [8], 0.094 nM. Moreover, the Kd in the experiment with soluble mouse BLyS [13] is 0.065 nM; with soluble human BLyS [14], 0.179 nM; with soluble mouse BLyS [4], 0.037 nM; with soluble human BLyS [5] it was 0.068 nM. The koff stood at 4e-05 s⁻¹ with soluble mouse BLyS [13], 3.5e-05 s⁻¹ in the experiment with soluble human BLyS [14], 0.000102 s⁻¹ with soluble mouse BLyS [4] and 4.6e-05 s⁻¹ in the experiment with soluble human BLyS [5]. Further, the kon with soluble mouse BLyS [13] came out at 620000 M⁻¹ s⁻¹; in the experiment with soluble human BLyS [14], 190000 M⁻¹ s⁻¹; in the experiment with soluble mouse BLyS [4], 2.73e+06 M⁻¹ s⁻¹; with soluble human BLyS [5], 678000 M⁻¹ s⁻¹. Further, the “IC50 mBLyS stimulated, mouse splenic B-cell proliferation” value with soluble mouse BLyS [22] was not above 1 ng/mL. Moreover, the “IC50 hBLyS stimulated” value in the experiment with soluble human BLyS [7] was not above 1 ng/mL.

Regarding B6, in experiment [23], the binding result is “binds”.
